From US20260159579A1 (Pfizer, published 2026)
Residue numbers refer to the chain shown, from its start. “And” between values parts separate entries of the source, which are not always exact repeats. Identical values can stand only once. Like-named read-outs stand apart in the source and are kept apart here.

Tests used:
[1] = molecular target: Mouse Fc-mouse GDF15 (Mu IgG1Fc_Fxa_Mu GDF15) (mouse); assay: SPR BIAcore T200, 37C; Fc-GDF15 captured, IgG as analyte
[2] = molecular target: T1, Mouse Fc-cynomolgus monkey GDF15 (Mu IgG1Fc_Fxa_Cyno GDF15) (cynomolgus monkey); assay: as above
T1 construct: Whole entry is the fusion: mouse IgG1 Fc, FXa site and linker, cynomolgus GDF15; described as dimeric; also called Murine dimeric IgG1 Fc-cyno GDF-15 with FXa cleavage site
T1 chain: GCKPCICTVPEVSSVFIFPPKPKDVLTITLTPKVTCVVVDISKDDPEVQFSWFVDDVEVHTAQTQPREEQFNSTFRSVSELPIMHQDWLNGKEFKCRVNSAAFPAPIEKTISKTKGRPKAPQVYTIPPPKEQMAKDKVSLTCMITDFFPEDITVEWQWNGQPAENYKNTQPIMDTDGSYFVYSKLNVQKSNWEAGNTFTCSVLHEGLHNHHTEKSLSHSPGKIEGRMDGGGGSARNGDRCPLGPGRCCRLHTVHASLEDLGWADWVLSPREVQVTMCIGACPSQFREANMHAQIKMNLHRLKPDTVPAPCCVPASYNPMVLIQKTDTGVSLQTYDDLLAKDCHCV
Method: (§1) Mouse Fc-human GDF15 (Mu IgG1Fc_Fxa_Hu GDF15; SEQ ID NO:2), Mouse Fc-mouse GDF15 (Mu IgG1Fc_Fxa_Mu GDF15; SEQ ID NO:5) and Mouse Fc-cynomolgus monkey GDF15 (Mu IgG1Fc_Fxa_Cyno GDF15; SEQ ID NO:4) were captured onto three different flow cells of a CM4 sensorchip (catalogue number BR100534, GE Healthcare) surface using the Mouse Antibody Capture Kit (BR100838, GE Healthcare) according to the manufacturer's protocol. The running and sample bufferwas 10 mM HEPES pH 7.4, 0.15M NaCl, 3 mM EDTA, 0.05% P-20 (HBS-EP+). The final capture levels of Mu IgG1Fc_Fxa_Hu GDF15, Mu IgG1Fc_Fxa_Mu GDF15 and Mu IgG1Fc_Fxa_Cyno GDF15 were 40 resonance units (RU), 32 RU and 25 RU respectively. Flow cell 1 was used as a reference flow cell. […] The dissociation was monitored for 2.8 hours and the surface was regenerated with 10 mM Glycine pH 1.7. Binding affinities and rate constants were determined for murine and cynomolgus monkey GDF15 by fitting the resulting sensorgram data to a 1:1 Langmuir model in BIAcore T200 Evaluation software version 2.0 (GE Healthcare).
(§2) Additionally, the binding of clone GDF15_001 to cynomolgus monkey and mouse GDF15 was measured using above mentioned BIAcore assay (Table 7).

[3] = molecular target: T2, Mouse Fc-human GDF15 (Mu IgG1Fc_Fxa_Hu GDF15) (human); assay: as above
T2 construct: Whole entry is the fusion: mouse IgG1 Fc, FXa site and linker, mature human GDF15; described as dimeric; also called Murine dimeric IgG1 Fc-human GDF-15 with FXa cleavage site; control human GDF15
T2 chain: T1 chain with R239H, H254R, E287A, M296T, N297S, V345I
Method: as §1, §2

[4] = molecular target: T2, Mouse Fc-human GDF15 (Mu IgG1Fc_Fxa_Hu …); assay: SPR BIAcore T200, 37C; Fc-GDF15 captured, IgG as analyte; average of runs; apparent KD
[5] = molecular target: T1, Mouse Fc-cynomolgus monkey GDF15 (Mu …); assay: SPR BIAcore T200, 37C; Fc-GDF15 captured, IgG as analyte; average of runs
Method: as §1, §2

[6] = molecular target: T2, Mouse Fc-human GDF15 (Mu IgG1Fc_Fxa_Hu …); assay: as above
Method: as §1, §2

[7] = molecular target: T2, Mouse Fc-human GDF15 (Mu IgG1Fc_Fxa_Hu …); assay: as above
Method: as §1, §2

[8] = molecular target: T2, Mouse Fc-human GDF15 (Mu IgG1Fc_Fxa_Hu …); assay: SPR BIAcore T200, 37C; Fc-GDF15 captured, IgG as analyte; apparent KD
[9] = molecular target: T2, Mouse Fc-human GDF15 (Mu IgG1Fc_Fxa_Hu …); assay: SPR BIAcore T200, 37C; Fc-GDF15 captured, IgG as analyte
Method: as §1, §2

[10] = molecular target: Mouse Fc-mouse GDF15 (Mu IgG1Fc_Fxa_Mu GDF15) (mouse); assay: SPR BIAcore T200, 37C; Fc-GDF15 captured, IgG as analyte; average of runs

B1: GDF15_001 (antibody, human IgG1, kappa, V domains shown)
VH: QVQLVQSGAEVKKPGSSVKVSCKASGYTFSSYNIDWVRQAPGQGLEWMGGINPIFGTAFYNQKFQGRVTITADESTSTAYMELSSLRSEDTAVYYCAREAITTVGAMDHWGQGTLVTVSS
VL: EIVLTQSPATLSLSPGERATLSCRTSQSVHNYLAWYQQKPGQAPRLLIYDASTRADGIPARFSGSGSGTDFTLTISSLEPEDFAVYYCQQFWSWPWTFGQGTKVEIKR
notes: Tested in bivalent format; IgG1 heavy chain, kappa light chain; also called ponsegromab; PF-06946860
Kd [1]: 114 pM and 175 pM and 138 pM | T½ min [1]: 0.66 h and 0.447 h and 0.555 h | koff [1]: 0.000292 s⁻¹ and 0.000431 s⁻¹ and 0.000347 s⁻¹ | kon [1]: 2.6e+06 M⁻¹ s⁻¹ and 2.5e+06 M⁻¹ s⁻¹ (2×) | Kd [2]: 8.86 pM and 6.71 pM and 9.26 pM | T½ min [2]: 14.8 h and 15.5 h and 18.7 h | koff [2]: 1.3e-05 s⁻¹ and 1.24e-05 s⁻¹ and 1.03e-05 s⁻¹ | kon [2]: 1.47e+06 M⁻¹ s⁻¹ and 1.85e+06 M⁻¹ s⁻¹ and 1.12e+06 M⁻¹ s⁻¹ | T½ min [3]: 20.9 h and 30.8 h and 40.3 h | koff [3]: 9.22e-06 s⁻¹ and 6.25e-06 s⁻¹ and 4.78e-06 s⁻¹ | kon [3]: 1.69e+06 M⁻¹ s⁻¹ and 2.03e+06 M⁻¹ s⁻¹ and 2.18e+06 M⁻¹ s⁻¹ | Kd [4]: < 10 pM | Kd [5]: 8.28 pM | koff [5]: 1.19e-05 s⁻¹ | kon [5]: 1.48e+06 M⁻¹ s⁻¹ | koff [6]: 6.75e-06 s⁻¹ | kon [6]: 1.97e+06 M⁻¹ s⁻¹ | Kd [7]: < 10 pM | koff [7]: 6.75e-06 s⁻¹ | kon [7]: 1.97e+06 M⁻¹ s⁻¹ | Kd [8]: < 10 pM | Kd [9]: < 10 pM | T½ min [9]: 40.3 h and 20.9 h and 30.8 h | koff [9]: 4.78e-06 s⁻¹ and 9.22e-06 s⁻¹ and 6.25e-06 s⁻¹ | kon [9]: 1.69e+06 M⁻¹ s⁻¹ and 2.18e+06 M⁻¹ s⁻¹ and 2.03e+06 M⁻¹ s⁻¹ | Kd [10]: 142 pM | koff [10]: 0.000356 s⁻¹ | kon [10]: 2.51e+06 M⁻¹ s⁻¹
